Data as given in patent US20040096950.

B1: BACE enzyme (refolded recombinant BACE as used in the fluorimetric activity assay) (protein)
chain: LPRETDEEPEEPGRRGSFVEMVDNLRGKSGQGYYVEMTVGSPPQTLNILVDTGSSNFAVGAAPHPFLHRYYQRQLSSTYRDLRKGVYVPYTQGKWEGELGTDLVSIPHGPNVTVRANIAAITESDKFFINGSNWEGILGLAYAEIARPDDSLEPFFDSLVKQTHVPNLFSLQLCGAGFPLNQSEVLASVGGSMIIGGIDHSLYTGSLWYTPIRREWYYEVIIVRVEINGQDLKMDCKEYNYDKSIVDSGTTNLRLPKKVFEAAVKSIKAASSTEKFPDGFWLGEQLVCWQAGTTPWNIFPVISLYLMGEVTNQSFRITILPQQYLRPVEDVATSQDDCYKFAISQSSTGTVMGAVIMEGFYVVFDRARKRIGFAVSACHVHDEFRTAAVEGPFVTLDMEDCGYNIPQTDES
B2: Clostripain (Cp; EC 3.4.22.8, from Worthington or Sigma C7403) (protein)
chain: NKNQKVTIMYYCDADNNLEGSLLNDIEEMKTGYKDSPNLNLIALVDRSPRYSSDEKVLGEDFSDTRLYKIEHNKANRLDGKNEFPEISTTSKYEANMGDPEVLKKFIDYCKSNYEADKYVLIMANHGGGAREKSNPRLNRAICWDDSNLDKNGEADCLYMGEISDHLTEKQSVDLLAFDACLMGTAEVAYQYRPGNGGFSADTLVASSPVVWGPGFKYDKIFDRIKAGGGTNNEDDLTLGGKEQNFDPATITNEQLGALFVEEQRDSTHANGRYDQHLSFYDLKKAESVKRAIDNLAVNLSNENKKSEIEKLRGSGIHTDLMHYFDEYSEGEWVEYPYFDVYDLCEKINKSENFSSKTKDLASNAMNKLNEMIVYSFGDPSNNFKEGKNGLSIFLPNGDKKYSTYYTSTKIPHWTMQSWYNSIDTVKYGLNPYGKLSWCKDGQDPEINKVGNWFELLDSWFDKTNDVTGGVNHYQW

What was measured:
[1] = target: BACE N->Q R56KR57K no His

| Protein | activity (fluorimetric assay with the fluorescent peptide R-E(EDANS)-E-V-N-L-*D-A-E-F-K(DABCYL)-R-OH as substrate) (OM 99) | Cleavage position (ESI-TOF-MS), final fragment, observed parent mass 46655 (BACE N->Q R56KR57K) | Cleavage position (ESI-TOF-MS), first intermediate fragment at 30-60 minutes post activation, observed parent mass 45838.30 [1] | Cleavage position (ESI-TOF-MS), fragment formed on digestion beyond 60 minutes, observed parent mass 44228.03 [1] | Cleavage position (ESI-TOF-MS), final fragment, observed parent mass 45783 (BACE WT R56KR57K) | Cleavage position (ESI-TOF-MS), first intermediate fragment (BACE WT R56KR57K) |
| --- | --- | --- | --- | --- | --- | --- |
| B1 | 1 mM OM 99 completely inhibits activity. | – | – | – | – | – |
| B2 | – | MASMTGGQQMGRGSMAGVLPAHGTQHGIRLPLRSGLGGAPLGLR↓ | MASMTGGQQMGRGSMAGVLPAHGTQHGIRLPLRSGLGGAPLGLR ↓ | EEPEEPGK ↓ KGSFVEMV . . . | MASMTGGQQMGRGSMAGVLPAHGTQHGIRLPLRSGLGGAPLGLR↓ | MASMTGGQQMGR⇓GSMAGVLPAHGT . . . |
